One test has as its system Cnp1–H4. Description: Pull-down competition with full-length histones Cnp1–H4 (histone octamers). It counts as binding, S. pombe. Particulars: incubation with Cnp1–H4–H2A–H2B octamers (molar excess); 25 mM Tris–HCl, pH 7.5, 500 mM NaCl, 5% glycerol, 1 mM TCEP, at least 1 h at 4°C; SDS–PAGE. On the procedure: We were unable to purify these directly as recombinant proteins, probably because of the lack of a suitable chaperone. […] As free Mis19 is extremely unstable, we tested if preformed Mis16–Mis19 dimers (full-length and N-terminally truncated, see sections below) could also interact with H4–Cnp1 by incubating them in a large molar excess of histone octamer.
All proteins were expressed in insect cells using standard procedures. Genes were codon-optimised in all cases (GeneArt). Single protein constructs were cloned in pFastBac vectors (Invitrogen), whereas multi-protein complexes were cloned using the MultiBac system ([Fitzgerald et al, 2006]). The Mis16 protein carried a TEV protease-cleavable double-Strep-Tactin tag at the N terminus for purification purposes. All clones were sequence verified. Baculoviruses were generated and amplified using Sf21 cells, infected in Hi5 cells, and then further incubated at 27°C for 48 h. Harvested cells were lysed by sonication in buffer A containing 50 mM Tris–HCl, pH 7.5, 150 mM NaCl, 0.5 mM TCEP, benzonase nuclease (3 units/1 × 10^6 cells), 10% glycerol, and protease inhibitors cocktail set III (Calbiochem). […]
All in vitro pull-down assays were performed using purified proteins or protein complexes. […] Input and pull-down elution samples were analysed by SDS–PAGE.

For a further test, the target named is T1, Mis16 (Schizosaccharomyces pombe, UniProt O94244).
T1 construct: double-Strep-Tactin tag (TEV protease-cleavable) (N, cleaved yes); made in house; host or cells: insect cells (baculovirus made in Sf21, expression in Hi5)
T1 sequence (O94244 whole entry): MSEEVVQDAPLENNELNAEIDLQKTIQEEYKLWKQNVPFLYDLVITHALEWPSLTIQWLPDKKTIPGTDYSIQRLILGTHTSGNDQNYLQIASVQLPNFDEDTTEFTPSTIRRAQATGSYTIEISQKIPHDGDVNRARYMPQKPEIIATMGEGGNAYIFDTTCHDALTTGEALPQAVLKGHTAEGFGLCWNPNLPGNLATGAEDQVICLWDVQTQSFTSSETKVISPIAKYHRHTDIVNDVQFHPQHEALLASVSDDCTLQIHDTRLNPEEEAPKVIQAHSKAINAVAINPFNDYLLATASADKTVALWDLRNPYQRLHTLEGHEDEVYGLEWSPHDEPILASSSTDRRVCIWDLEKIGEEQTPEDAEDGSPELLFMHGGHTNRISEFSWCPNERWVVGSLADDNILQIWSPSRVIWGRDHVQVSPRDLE
Description: Co-expression and affinity pull-down/size-exclusion co-purification of Mis19 deletions with Mis16. Type of test: binding, S. pombe. Particulars: co-expressed in insect cells, Strep-Tactin tag on Mis16, gel filtration, SDS–PAGE band. The text has this: Figure 2. Mis16–Mis19 contact regions. (A) Crystal structure of Mis16–Mis19 highlighting the Mis19-binding sites. Three putative binding sites A, B, and C (lighter to darker orange from N terminus to C terminus) are indicated. (B) Schematic of the various deletion constructs of Mis19 are used for binding studies showing the positions of sites A, B, and C. (C) Constructs containing affinity-tagged Mis16 and the Mis19 deletions shown above were co-expressed and purified by affinity pull-down and size-exclusion chromatography. SDS–PAGE gel of peak fractions is shown. Asterisks indicate impurities. (D) Close-up of the A- and C-binding sites. The locations of the kis1-1 (R65) and eic1-1 (F102) t.s. mutant residues are shown.
The C-terminal interaction of Mis19 with Mis16 (site C in our nomenclature) has been previously described ([An et al, 2018]). […] To test the contribution of the individual sites to the Mis16–Mis19 interaction, various truncated Mis19 constructs were designed, for which site A, […], or both A and C are missing (Fig 2B). Full-length Mis16 and Mis19C (includes sites A, B, and C, residues 52–112), construct 1 (includes site B and C, residues 66–112), construct 2 (includes binding site B, residues 66–99), and construct 3 (includes site A and B, residues 52–99) were co-expressed in insect cells, as the isolated Mis19 truncations cannot be expressed and purified. […]
For orientation: Size exclusion chromatography separates by hydrodynamic size, large species first.

B1: Mis19: S. pombe Mis18 partner protein (protein)
chain: MDLMPLEKARAIEIAFDNVFHNTKIPDNLQQFDAILKRLERRRFIPTENQKPRVYETELLVLRFREFGVKDNHNHPINLHSLRSKSLIRAQGKKLDLHNRVFLRRNVRAVKM
For B1, in the test on Cnp1–H4, the “interaction with Cnp1–H4 / histone transfer” value is “completely inhibits histone transfer to Mis16”.

B2: Mis19C: Mis19 truncation including sites A, B, and C, residues 52–112 (protein)
chain: PRVYETELLVLRFREFGVKDNHNHPINLHSLRSKSLIRAQGKKLDLHNRVFLRRNVRAVKM
Consider B2, for which, in the test with Mis16, the “association with Mis16” value is “Mis19 is associated with Mis16”. The “interaction with Cnp1–H4 / histone transfer” value in the test on Cnp1–H4 is reported as “no histones can be transferred onto Strep-Mis16”.

The values are drawn from publication PMC6677171, “Subunit interactions and arrangements in the fission yeast Mis16–Mis18–Mis19 complex” (Life Science Alliance, 2019).
